Experimental findings from PMC8876628 (Toxins, 2022) are described below.

This test addresses Tetanus neurotoxin (Clostridium tetani, UniProt P04958). The test can be described thus: cryo-EM structure; epitopes of TT104 and TT110 on TeNT determined via cryo-EM. The note with it: both partners purified.

Sequence of Tetanus neurotoxin (P04958 whole entry): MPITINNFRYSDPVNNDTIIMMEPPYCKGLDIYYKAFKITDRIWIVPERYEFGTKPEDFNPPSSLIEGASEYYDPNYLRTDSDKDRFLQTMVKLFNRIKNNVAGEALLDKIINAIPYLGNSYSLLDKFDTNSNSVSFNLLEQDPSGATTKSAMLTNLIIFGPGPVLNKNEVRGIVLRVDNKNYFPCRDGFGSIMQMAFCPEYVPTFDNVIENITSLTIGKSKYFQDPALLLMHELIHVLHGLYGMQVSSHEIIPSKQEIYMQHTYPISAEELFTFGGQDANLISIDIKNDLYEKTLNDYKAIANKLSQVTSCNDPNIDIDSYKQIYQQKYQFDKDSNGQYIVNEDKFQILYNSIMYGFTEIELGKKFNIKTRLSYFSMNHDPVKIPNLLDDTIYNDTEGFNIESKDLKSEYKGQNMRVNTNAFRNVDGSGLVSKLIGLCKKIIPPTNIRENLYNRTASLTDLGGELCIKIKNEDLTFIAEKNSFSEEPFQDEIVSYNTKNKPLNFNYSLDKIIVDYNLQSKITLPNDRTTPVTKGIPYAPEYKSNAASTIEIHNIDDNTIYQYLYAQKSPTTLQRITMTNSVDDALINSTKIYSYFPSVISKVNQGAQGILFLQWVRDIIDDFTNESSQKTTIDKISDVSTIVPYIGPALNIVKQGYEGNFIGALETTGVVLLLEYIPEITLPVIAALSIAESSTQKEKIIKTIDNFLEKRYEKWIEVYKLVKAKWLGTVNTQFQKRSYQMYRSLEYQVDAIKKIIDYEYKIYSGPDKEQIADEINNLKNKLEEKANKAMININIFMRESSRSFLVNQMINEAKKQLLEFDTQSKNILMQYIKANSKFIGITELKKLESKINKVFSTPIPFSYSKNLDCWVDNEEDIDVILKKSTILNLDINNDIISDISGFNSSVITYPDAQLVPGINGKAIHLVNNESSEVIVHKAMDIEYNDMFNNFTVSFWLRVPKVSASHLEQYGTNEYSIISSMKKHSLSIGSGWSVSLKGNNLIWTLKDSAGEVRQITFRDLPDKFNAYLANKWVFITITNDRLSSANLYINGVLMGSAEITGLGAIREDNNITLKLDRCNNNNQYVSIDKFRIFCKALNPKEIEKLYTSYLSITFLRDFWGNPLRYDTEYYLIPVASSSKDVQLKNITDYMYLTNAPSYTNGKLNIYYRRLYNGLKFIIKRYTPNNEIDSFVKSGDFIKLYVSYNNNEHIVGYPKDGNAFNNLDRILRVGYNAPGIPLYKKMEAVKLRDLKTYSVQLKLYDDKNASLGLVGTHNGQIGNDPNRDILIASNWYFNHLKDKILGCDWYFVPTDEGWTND

B1: TT104 human monoclonal antibody (antibody, V domains shown)
VH: QLQLQESGPGLVRPSETLSLTCSVSDDSMGSSTYYWAWIRQPPGKGLEWIGNVYYNGVTYYNSSLESRLTLSIDPSKNQFSLILSSVTAADTAVYYCARQADNWFDPWGQGTLVTVSS
VL: EIMMTQSPATLSVSPGERATLSCRASQSVGSDLAWYQQKPGQAPRLLIYGASYRATGIPARFSGGGSGTEFTLTISSMQSEDFAVYYCQQYYNWPPYTFGQGTKVEIK
notes: also called humAb TT104
As for B1, the binding result is “binds”.

B2: TT110 human monoclonal antibody (antibody, V domains shown)
VH: QVQLMQSGAEVQKPGASVKVSCQASGFTLNNYYIHWLRQAPGQGFEWMGIFNPSSGTRTYAQKFQGRISMTADASTTTLYMELSGLTSEDAGVYFCARIGGSTYGRLMTYYFDHWGQGTVVAVSS
VL: EVVLTQSPVTLSVSPGGRGTLSCRASRSISTTLAWYQQKPGQAPRLLIYGASTRATGIPARFTGSGSGTEFTLTISSLQSEDFAVYYCQQYNDWPVTFGQGTQVEVK
notes: also called humAb TT110
In the case of B2, the binding result was “binds”.
